From PMC5796892, “Leishmania donovani Inhibitor of Serine Peptidases 2 Mediated Inhibition of Lectin Pathway and Upregulation of C5aR Signaling Promote Parasite Survival inside Host” (Frontiers in Immunology, 2018)

How the values were obtained:
Conditions in all cases: both partners purified
[1] = biological target: T1, C1 complex (C1qr2s2) (human, UniProt P02745 23-245; P02746 28-253; P02747 29-245); experiment: ELISA; C1 complex at 50 µg/ml bound to human IgM-coated plate (37°C, 2 h); rLdISP1/rLdISP2 0-50 µM added, 37°C, 2 h; bound ISP detected with anti-ISP1 or anti-ISP2 antibody; Kd taken as the free ligand at half saturation
T1 construct: Complement C1q, subunit A; Complement C1q, subunit B; Complement C1q, subunit C; Complement C1r, serine protease of the C1 complex; the PDB entry was used only for docking and holds a fragment; Complement C1s, serine protease of the C1 complex; Held on plates coated with human IgM; also called C1 component; source: bought: Merk-Millipore (purified C1 complex); copies: + + + 2 + 2

[2] = biological target: T1, C1 complex (C1qr2s2); experiment: ELISA; C1 complex at 6.25 µg/ml bound to human IgM-coated plate (37°C, 2 h); rLdISP1/rLdISP2 0-50 µM added, 37°C, 2 h; bound ISP detected with anti-ISP1 or anti-ISP2 antibody; Kd taken as the free ligand at half saturation
[3] = biological target: T1, C1 complex (C1qr2s2); experiment: ELISA; C1 complex at 25 µg/ml bound to human IgM-coated plate (37°C, 2 h); rLdISP1/rLdISP2 0-50 µM added, 37°C, 2 h; bound ISP detected with anti-ISP1 or anti-ISP2 antibody; Kd taken as the free ligand at half saturation
[4] = biological target: T1, C1 complex (C1qr2s2); experiment: ELISA; C1 complex at 100 µg/ml bound to human IgM-coated plate (37°C, 2 h); rLdISP1/rLdISP2 0-50 µM added, 37°C, 2 h; bound ISP detected with anti-ISP1 or anti-ISP2 antibody; Kd taken as the free ligand at half saturation
[5] = biological target: T1, C1 complex (C1qr2s2); experiment: ELISA; C1 complex at 12.5 µg/ml bound to human IgM-coated plate (37°C, 2 h); rLdISP1/rLdISP2 0-50 µM added, 37°C, 2 h; bound ISP detected with anti-ISP1 or anti-ISP2 antibody; Kd taken as the free ligand at half saturation

B1: recombinant Leishmania donovani inhibitor of serine peptidases 1 (natural protein)
chain: MSYCKIEAPYPTAEAGEKRIIFALDPKGDEAEQEQYMLQLIPGRVLEMSRNDAANHQTLGGSIEQHTVEGWGAKFFHVKLAKQAASTLMHVHDEDHSEKVRKFVAMPNPPLFPYRSRCPVVVYLPNDAELRYGIWCGGQQMQAVTE
B1 was tested, and the Ka [1] was 450000 M⁻¹, the Kd [1] was 2200 nM and the Ka [2] was 260000 M⁻¹. For the same binder, the Kd [2] was 3.8 µM, the Ka [3] was 330000 M⁻¹ and the Kd [3] was 2800 nM. It also gave a Ka [4] of 625000 M⁻¹, a Kd [4] of 1600 nM and a Ka [5] of 280000 M⁻¹. For the same binder, the Kd [5] was 3.5 µM.
